The values below come from patent publication US20110086006.

By Km is commonly meant the substrate concentration at which the rate is half of its maximum. By kcat is commonly meant the number of substrate molecules converted per active site and unit of time at saturation. One may read the kcat/Km as the second-order rate constant that governs catalysis at low substrate concentration.

Series [1] deals with KK4A peptide (KKGSVVIVGRIVLSGK), central region of the NS4A cofactor from genotype 1a with lysine residues added for improved solubility.
The subject of series [2] is internally quenched fluorogenic peptide (FRET substrate), Ac-DED(EDANS)EEαAbuψ[COO]ASK(DABCYL)-NH2.
Series [3] concerns the target T1, internally quenched fluorogenic peptide (FRET substrate), Ac-DED(EDANS)EEαAbuψ[COO]ASK(DABCYL)-NH2.
T1 chain: DEDEEXASK

The target of series [4] is T2, KK4A peptide (KKGSVVIVGRIVLSGK), central region of the NS4A cofactor from genotype 1a with lysine residues added for improved solubility.
T2 chain: KKGSVVIVGRIVLSGK

Numbering of substitutions follows the chain as printed. Names may count otherwise. Read-outs that look alike come from different tables or passages of the source.

For the molecule “wild type HCV NS3 serine protease domain, genotype 1a”, the “kinetic parameters for the FRET substrate” value in series [1] is “Although the NS4A peptide co-factor was from HCV genotype 1a, no discernable difference in the kinetic parameters was observed”. In series [2], the Kcat stood at 1.2 s⁻¹, the Kcat/Km came to 897000 M⁻¹ s⁻¹ and the Km was 1.3 µM.

B1: D168V mutant HCV NS3 serine protease domain, genotype 1b (protein)
chain: APITAYSQQTRGLLGCIITSLTGRDRNQVEGEVQVVSTATQSFLATCVNGVCWTVYHGAGSKTLAGPKGPITQMYTNVDQDLVGWQAPPGARSLTPCTCGSSDLYLVTRHADVIPVRRRGDSRGSLLSPRPVSYLKGSSGGPLLCPSGHAVGIFRAAVCTRGVAKAVVFVPVESMETTMRSHHHHHH
Regarding B1, in series [3], the Kcat is 0.6 s⁻¹, the Kcat/Km was found to be 498000 M⁻¹ s⁻¹ and the Michaelis-Menten constant (Km) turned out to be 1.2 µM.

B2: wild type HCV NS3 serine protease domain, genotype 1b (Con1), residues Ala1-Ser181 with a C-terminal hexa-histidine tag (protein)
chain: B1 chain with V168D
For B2, the “kinetic parameters for the FRET substrate” value in series [4] is “Although the NS4A peptide co-factor was from HCV genotype 1a, no discernable difference in the kinetic parameters was observed”. Also, in series [3], the Kcat worked out at 1 s⁻¹, the Kcat/Km came out at 947000 M⁻¹ s⁻¹, the Km was determined as 1.1 µM and the kcat is 1 s⁻¹. The kcat/Km in series [3] was determined as 947000 M⁻¹ s⁻¹.

B3: A156T mutant HCV NS3 serine protease domain, Con1 strain (protein)
chain: B1 chain with A156T, V168D
With B3, in series [3], the Michaelis-Menten constant (Km) was determined as 1.3 µM, the kcat came to 0.2 s⁻¹ and the kcat/Km is 136000 M⁻¹ s⁻¹.

B4: A156V mutant HCV NS3 serine protease domain, Con1 strain (protein)
chain: B1 chain with A156V, V168D
As to B4, in series [3], the Km was 2.6 µM, the kcat came out at 0.6 s⁻¹ and the specificity constant (kcat/Km) worked out at 234000 M⁻¹ s⁻¹.

B5: A156S mutant HCV NS3 serine protease domain, genotype 1b (protein)
chain: B1 chain with A156S, V168D
For B5, in series [3], the Kcat turned out to be 0.6 s⁻¹, the Kcat/Km came out at 664000 M⁻¹ s⁻¹ and the Km stood at 0.9 µM.

B6: D168A mutant HCV NS3 serine protease domain, genotype 1b (protein)
chain: B1 chain with V168A
In the case of B6, in series [3], the Kcat amounted to 0.3 s⁻¹, the Kcat/Km was found to be 150000 M⁻¹ s⁻¹ and the Michaelis-Menten constant (Km) was found to be 2 µM.
